Experimental data reported in US20150111820A1, “NOVEL USE OF INSULIN DERIVATIVES” (Novo Nordisk A/S, priority 2012, published 2015).

Design: species or system humans
Conditions: in vivo
Description: The simulation was performed using the software WinNonlin Professional 5.3 (Pharsight Inc., Mountain View, Calif., USA).

Row | Substance | terminal half-life compared with Compound 6 | elimination half-life | elimination rate constant
1 | A14E, B25H, desB27, B29K(N^ε-(octadecandioyl-γGlu), desB30 human insulin [Compound 4] | almost the same terminal half-life | – | –
2 | A14E, B25H, B29K(N^ε-octadecandioyl-γGlu-OEG-OEG), desB30 human insulin [Compound 6] | – | 52 h | 0.013 h⁻¹
